Reference: paper PMC10826351

Each substance was assayed against T1, PbtAC (PbtA C-terminal domain) (Vibrio anguillarum RV22) (UniProt A0A289GIJ0) (assay: EMSA). Conditions: 1 mM Tris pH 7.5, 155 mM KCl, 0.1 mM DTT, 5% glycerol, 5 mM MgCl2, 1 mM EDTA, 0.3 mg/mL BSA, 30 min at 20 C.
T1 sequence: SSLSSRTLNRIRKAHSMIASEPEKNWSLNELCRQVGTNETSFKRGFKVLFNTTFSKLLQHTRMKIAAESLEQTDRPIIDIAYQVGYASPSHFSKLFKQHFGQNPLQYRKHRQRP

**Q.** With “AAAAATAGACGACCCGATCTATTCAAGCTTGTTTAAAATAACAATCATAAACGTCGATTCACGCTCTTTTTATGCCTTATTCAGTTAGCAGGTAAAAGACAGAATCGGCACTATAAGTTCAATATGGATACCACAG (double strand) [Probe 5 (frpA)]” as the substance, how does the binding read?
**A.** The binding was “binds”.

**Q.** How did the binding turn out when “TAAAACAAAACCAGAAAATAAAATAAAAATCAACAAAATTAAATGCTTAATTTTAATTAAGTTC (double strand) [Probe 4 (frpA, 6xAAAAT low complexity region)]” was run?
**A.** Its binding is “no binding”.

Same assay, conditions: 1 mM Tris pH 7.5, 155 mM KCl, 0.1 mM DTT, 5% glycerol, 5 mM MgCl2, 1 mM EDTA, 0.3 mg/mL BSA, 30 min at 20 C, scale: free probe band ratio to no-protein control

**Q.** With “TATTGAGCAATTGAGGATTAATGAATGTGGCCACTAATATACTAATACCGATTGCTGAGTGGTGGGCTAGTTACGACTAAACGCGACGATTTTATACCTAATTGCGTTAGCGATGGCATGCATATTCAGCAAAAATAGCCTCCATTTATG (double strand) [Probe 12 (frpC)]” as the substance, how does the binding signal read?
**A.** Its binding signal is 0.7.

What follows are substances tested on PbtAC (PbtA C-terminal domain) (Vibrio anguillarum RV22) (assay: EMSA). Conditions: 1 mM Tris pH 7.5, 155 mM KCl, 0.1 mM DTT, 5% glycerol, 5 mM MgCl2, 1 mM EDTA, 0.3 mg/mL BSA, 30 min at 20 C, scale: free probe band ratio to no-protein control.

**Q.** LPS wzi(ab) promoter (P4) was tested. Which binding signal did it give?
**A.** Its binding signal is 0.26.

**Q.** For PfrpA (Probe 1), which binding signal is on record?
**A.** Its binding signal is 0.49.

**Q.** For PfrpC (Probe 9), which binding signal is on record?
**A.** The binding signal was 0.41.

**Q.** For hcp1 promoter (P5), which binding signal is on record?
**A.** Its binding signal is 0.74.

**Q.** For hcp2 promoter (P6), which binding signal is on record?
**A.** The binding signal was 0.28.

**Q.** How did the binding signal turn out when vanT promoter (P3) was run?
**A.** Its binding signal is 0.81.

**Q.** Which binding signal does the source give for vgrG promoter (P2?) here?
**A.** Its binding signal is 0.09.

**Q.** vipA promoter (P1?) was tested. Which binding signal did it give?
**A.** The binding signal was 0.2.
